Biological target: T1, mature cathepsin K (murine) (murine, UniProt P55097 115-329)
T1 construct: cathepsin K, murine; catalytic Cys25; 22 kDa as printed; No tag is named; also called CtsK; mature CtsK; source: 293-Freestyle cells, transient expression of pro-CtsK
T1 sequence (looked up): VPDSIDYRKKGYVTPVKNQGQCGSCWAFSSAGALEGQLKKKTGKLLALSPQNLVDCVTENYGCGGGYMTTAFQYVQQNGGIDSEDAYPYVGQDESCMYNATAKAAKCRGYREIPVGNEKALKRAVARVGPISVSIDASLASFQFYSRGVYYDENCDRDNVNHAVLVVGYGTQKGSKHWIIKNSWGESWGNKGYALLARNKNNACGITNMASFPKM
Assay: SEC; CtsK and Cst3 without HS, Superdex200 column
Conditions: both partners purified

B1: Cystatin C (natural protein, UniProt P21460 21-140, looked up)
chain: ATPKQGPRMLGAPEEADANEEGVRRALDFAVSEYNKGSNDAYHSRAIQVVRARKQLVAGVNYFLDVEMGRTTCTKSQTNLTDCPFHDQPHLMRKALCSFQIYSVPWKGTHSLTKFSCKNA
notes: Cystatin C (Cst3), 13 kDa as printed; The printed residues (Pro7, Met9, Leu10, Gly11, Ala12, Leu56-Gly59, Pro105-Lys107) fit mature mouse cystatin C as I recall it, not the human protein; human cystatin C (PDB 3GAX) was only the search model for molecular replacement; also called Cst3; Cts3
  stoichiometry N: 1

From doi:10.1101/2024.01.05.574350, “Heparan sulfate selectively inhibits the collagenase activity of cathepsin K” (bioRxiv, 2024)
